Where a chain is given by its changes, count along the chain named. Numbers in names are those of the source.
B1: HOIL-1 233-510 (C460A) (domain or fragment)
chain: DEEERARLAGEEEALRQYQQRKQQQQEGNYLQHVQLDQRSLVLNTEPAECPVCYSVLAPGEAVVLRECLHTFCRECLQGTIRNSQEAEVSCPFIDNTYSCSGKLLEREIKALLTPEDYQRFLDLGISIAENRSAFSYHCKTPDCKGWCFFEDDVNEFTCPVCFHVNCLLCKAIHEQMNCKEYQEDLALRAQNDVAARQTTEMLKVMLQQGEAMRCPQCQIVVQKKDGADWIRCTVCHTEICWVTKGPRWGPGGPGDTSGGCRCRVNGIPCHPSCQNCH
B2: RNF216 (511-784, C688A, pSer719) (domain or fragment)
chain: QLIECRCCYGEFPFEELTQCADAHLFCKECLIRYAQEAVFGSGKLELSCMEGSCTCSFPTSELEKVLPQTILYKYYERKAEEEVAAAYADELVRCPSCSFPALLDSDVKRFSCPNPHCRKETCRKCQGLWKEHNGLTCEELAEKDDIKYRTSIEEKMTAARIRKCHKCGTGLIKSEGANRMSCRCGAQMCYLCRVSINGYDHFCQHPRSPGAPCQECSRCSLWTDPTEDDEKLIEEIQKEAEEEQKRKNGENTFKRIGPPLEKPVEKVQRVEAL
modifications: phosphoserine at 719
B3: HOIL-1 233-510 (helix-RBR), wild type (domain or fragment)
chain: B1 chain with A228C

How the values were obtained:
ubiquitin = ubiquitin (UniProt P0CG48 1-76); assay: crystal structure
M1-linked di-Ub = M1-linked di-Ub (UniProt P0CG48); assay: ITC

Row | Binder | binding result (ubiquitin) | Kd (M1-linked di-Ub) [µM]
1 | B1 | binds | –
2 | B2 | binds | –
3 | B3 | – | ~50
